These results are taken from patent US20240352438A1, “MEANS AND METHODS FOR DETOXIFYING OCHRATOXIN A” (DSM Austria GmbH, priority 2021, published 2024).

A short description of the experiment: OTA detoxification activity assay (specific activity, fluorescence reduction ex/em 390/450 nm). It is filed as biochemical. The conditions noted are these: for Specific OTA detoxification activities in % compared to the enzyme of SEQ ID NO: 1, pH 6.0 / Specific OTA detoxification activities in % compared to the enzyme of SEQ ID NO: 1, pH 7.5: SEQ ID NO: 1 = 100%. The method, then:
To determine the specific activity of recombinant target polypeptides produced e.g. as described in Example 2 above in units per liter (U/L), ochratoxin A (OTA) detoxification activity assays were performed. One unit is defined as the amount of enzyme necessary for degradation of 1 μmol or OTA in 1 min when using a starting OTA concentration of […].
OTA detoxification activity assays were set up in a final volume of the reaction mixture of […], containing the recombinant enzyme preparation (preferably diluted to yield a volumetric activity of 1-10 mU/L), and 200 ng/mL OTA in 100 mM sodium phosphate buffer.
Specific activities were determined at pH 6.0 and pH 7.5. As soon as all components of the reaction mixture were mixed, OTA degradation was followed at 37° C. on a fluorescence spectrophotometer (BioTek Synergy H1 MFD Multimode microplate reader) by following the reduction in fluorescence at ex/em 390 nm/450 nm. For work performed at pH 6.0 and 7.5, a 100 mM sodium phosphate buffer was used.
For calculation of the specific activity, the initial linear part of the recorded fluorescence reduction curve was used. In addition to the fluorescence-based method described above, OTA degradation was also determined by using the HPLC-MS method as described by Dellafiora et al. 2020, Toxins 12, 258, essentially confirming the fluorescence-based results. Genes encoding either of the indicated SEQ ID NOs are expressed as described herein and the specific activities for the obtained polypeptide preparation are exemplarily shown in Table 8. Analogously, enzymatic activities using either ochratoxin B, C or TA as substrate or can be found.

B1: I308V/V355L: variant of the enzyme of SEQ ID NO: 318 having the mutation combination I308V/V355L (protein)
chain: MTTRTRILTAFLSLLAANACAADAAPAAPHTVVLRAARMFDGASGKLVDHPQLTIVGNKIVRIAQGDKAEVPAGAEVVDLGDATLLPGFIDAHVHLSGQSSDNWYGDFFDNMMRFPAEQALYGAYYARITLEAGFTSVRDVGSTDWVALGLRNAIDAGKVPGPRMLVSNYAVGSTGGHADQDPIPPHKLPLAGPLQGVCNGPEECRAAVRYQIKYGANVIKFMPSGGVLSLSDPVDAPELSQDEMNAVIGESHAWGRKVAAHAHGDKAAKMAVAAGVDSIEHGSFIEDDTLRAMKAKNVYLVPTISAVAHVEEKIGTFPPVIAEKGRAAAAHLRQTFRHAVQIGVPIALGTDAGLGAHGSNAREFRYMVENGLTPAQALLAGTANAARLLGTFDRVGTLEAGKLADVVAVPGNPIADITVTERPLFVMKDGVVVRRDAVR
modifications: exemplary polypeptide
Regarding B1, the “% of the activity of the non-mutated enzyme of SEQ ID NO: 318 at pH 6” value came out at 209% and the “% of the activity of the non-mutated enzyme of SEQ ID NO: 318 at pH 7.5” value was found to be 189%.

B2: F318Y/V355L: variant of the enzyme of SEQ ID NO: 318 having the mutation combination F318Y/V355L (protein)
chain: MTTRTRILTAFLSLLAANACAADAAPAAPHTVVLRAARMFDGASGKLVDHPQLTIVGNKIVRIAQGDKAEVPAGAEVVDLGDATLLPGFIDAHVHLSGQSSDNWYGDFFDNMMRFPAEQALYGAYYARITLEAGFTSVRDVGSTDWVALGLRNAIDAGKVPGPRMLVSNYAVGSTGGHADQDPIPPHKLPLAGPLQGVCNGPEECRAAVRYQIKYGANVIKFMPSGGVLSLSDPVDAPELSQDEMNAVIGESHAWGRKVAAHAHGDKAAKMAVAAGVDSIEHGSFIEDDTLRAMKAKNVYLVPTISAIAHVEEKIGTYPPVIAEKGRAAAAHLRQTFRHAVQIGVPIALGTDAGLGAHGSNAREFRYMVENGLTPAQALLAGTANAARLLGTFDRVGTLEAGKLADVVAVPGNPIADITVTERPLFVMKDGVVVRRDAVR
modifications: exemplary polypeptide
As for B2, the “% of the activity of the non-mutated enzyme of SEQ ID NO: 318 at pH 6” value came out at 197% and the “% of the activity of the non-mutated enzyme of SEQ ID NO: 318 at pH 7.5” value came to 138%.

B3: 170 (protein)
chain: MTTRTRILTAFLSLLAANACAADAAPAAPHTVVLRAARMFDGASGKLVDHPQLTIVGNKIVRIAQGDKAEVPAGAEVVDLGDATLLPGFIDAHVHLSGQSSDNWYGDFFDNMMRFPAEQALYGAYYARITLEAGFTSVRDVGSTDWVALGLRNAIDAGKVPGPRMLVSNYPVGSTGGHADQDPIPPHKLPLAGPLQGVCNGPEECRAAVRYQIKYGANVIKFMPSGGVLSLSDPVDAPELSQDEMNAVIGESHAWGRKVAAHAHGDKAAKMAVAAGVDSIEHGSFIEDDTLRAMKAKNVYLVPTISAAAHVEEKIGTFPPVIAEKGRAAAAHLRQTFRHAVQIGVPIALGTDAAVGAHGSNAREFRYMVENGLTPAQALLAGTANAARLLGTFDRVGTLEAGKLADVVAVPGNPIADITVTERPLFVMKDGVVVRRDAVR
modifications: exemplary polypeptide
With B3, the “Specific OTA detoxification activities in % compared to the enzyme of SEQ ID NO: 1, pH 6.0” value came to 49% and the “Specific OTA detoxification activities in % compared to the enzyme of SEQ ID NO: 1, pH 7.5” value is on record as 32%.

B4: 161 (protein)
chain: MTTRTRILTAFLSLLAANACAADAAPAAPHTVVLRAARMFDGASGKLVDHPQLTIVGNKIVRIAQGDKAEVPAGAEVVDLGDATLLPGFIDAHVHLSGQSSDNWYGDFFDNMMRFPAEQALYGAYYARITLEAGFTSVRDVGSTDWVALGLRNAIDAGKVPGPRMLVSNYAVGSTGGHADQDPIPPHKLPLAGPLQGVCNGPEECRAAVRYQIKYGANVIKFMPSGGVLSLSDPVDAPELSQDEMNAVIGESHAWGRKVAAHAHGDKAAKMAVAAGVDSIEHGSFIEDDTLRAMKAKNVYLVPTISAAAHVEEKIGTFPPVIAEKGRAAAAHLRQTFRHAVQIGVPIALGTDAAVGAHGSNAREFRYMVENGLTPAQALLAGTANAARLLGTFDRVGTLEAGKLADVVAVPGNPIADITVTERPLFVMKDGVVVRRDAVR
modifications: exemplary polypeptide
Take B4: the “Specific OTA detoxification activities in % compared to the enzyme of SEQ ID NO: 1, pH 6.0” value was 132% and the “Specific OTA detoxification activities in % compared to the enzyme of SEQ ID NO: 1, pH 7.5” value was found to be 110%.
